In the series the target is T1, FLPo (codon-optimized FLPe recombinase) (UniProt P03870).
T1 sequence: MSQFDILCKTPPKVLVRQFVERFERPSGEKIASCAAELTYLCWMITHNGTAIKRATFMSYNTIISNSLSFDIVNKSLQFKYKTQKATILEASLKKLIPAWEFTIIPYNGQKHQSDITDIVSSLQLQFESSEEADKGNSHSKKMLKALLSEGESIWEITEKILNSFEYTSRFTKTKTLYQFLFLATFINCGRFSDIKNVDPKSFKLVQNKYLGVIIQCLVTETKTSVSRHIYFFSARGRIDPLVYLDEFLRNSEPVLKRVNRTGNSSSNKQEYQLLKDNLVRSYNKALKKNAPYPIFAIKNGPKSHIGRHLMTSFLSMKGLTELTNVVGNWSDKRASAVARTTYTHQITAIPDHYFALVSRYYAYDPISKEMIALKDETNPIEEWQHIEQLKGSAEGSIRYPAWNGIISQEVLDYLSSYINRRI
In words: cell_activity.

Regarding “FRT (FLP recognition site) in ROSA26 PLAP reporter”, the activity (% of hygroR colonies recombined) (stable integration, 7 of 14 colonies) stood at 50. Besides, the activity (transient, mouse FLP reporter ES cells, 10 ug circular plasmid, 5 days, value stated as nearly 75%, nearly 20-fold over FLPe) turned out to be 75%.

The record behind these values is US20100050279.
